Columns and labels:
Assay in all cases: purified protein
purified protein [1] = substrate: C[C@@H](O)CC(=O)SCCNC(=O)CCNC(=O)[C@H](O)C(C)(C)COP(=O)(O)OP(=O)(O)OC[C@H]1O[C@@H](n2cnc3c(N)ncnc32)[C@H](O)[C@@H]1OP(=O)(O)O; settings: oxidative direction, 2 mM NADP+, pH 7 TRIS-HCl, 70°C
purified protein [2] = substrate: NC(=O)C1=CN([C@@H]2O[C@H](COP(=O)(O)OP(=O)(O)OC[C@H]3O[C@@H](n4cnc5c(N)ncnc54)[C@H](OP(=O)(O)O)[C@@H]3O)[C@@H](O)[C@H]2O)C=CC1; settings: 0.3 mM AcAcCoA, pH 7 TRIS-HCl, 35°C, varied: cofactor
purified protein [3] = substrate: CC(=O)CC(=O)SCCNC(=O)CCNC(=O)[C@H](O)C(C)(C)COP(=O)(O)OP(=O)(O)OC[C@H]1O[C@@H](n2cnc3c(N)ncnc32)[C@H](O)[C@@H]1OP(=O)(O)O; settings: 0.2 mM NADPH, pH 7 TRIS-HCl, 35°C

B1: ACR (Saci_1104) (Sulfolobus acidocaldarius DSM 639) (protein)
chain: MYSLKDKVVVVTGSGRGIGRAIALRLAQEGSKIVVNAKKRAEEVNETVEMVKKIGGDAVGVLADVGTKEGCETLLKSTLDKFGVVDILVNNAGLGLFSLFMNADDKLIEKHISVDFKSVVYCSQAFAREMREGGEIVNIASIAGVLPAYGLSMYGAMKGAVISLTKYMALELAPKIRVNAIAPGWVKTKLGESMYKLLNMSEKEFVEKTTLMGKMLEPEDIAEFVTAILKIEGLTGQVFVVDAGESIKRGIA
- Km (purified protein [1]): 160 ± 12 µM
- kcat (purified protein [1]): 0.435 s⁻¹
- Km (purified protein [2]): 24 ± 3 µM
- Km (purified protein [3]): 77 ± 9 µM
- kcat (purified protein [3]): 0.586 s⁻¹
